In article PMC12402178 (2025) one finds koff data, which are given here for one molecule.

Assay [1] addresses T1, microtubules polymerised from porcine brain tubulin (GMPCPP-stabilised seeds, dynamic GDP lattice, or … (porcine, UniProt P02550 1-451, part of the tubulin labelled with Rhodamine or HiLyte 647)); part biotinylated (surface-immobilised microtubules) | part of the tubulin labelled with Rhodamine or HiLyte 647; part biotinylated …). Briefly: FRAP, microtubule-microtubule overlap (median).

Assay [2] concerns the target T1, microtubules polymerised from porcine …. Briefly: FRAP, actin-microtubule overlap (median), with actin filaments.

T1 sequence (P02550 whole entry, chain 1 of 2): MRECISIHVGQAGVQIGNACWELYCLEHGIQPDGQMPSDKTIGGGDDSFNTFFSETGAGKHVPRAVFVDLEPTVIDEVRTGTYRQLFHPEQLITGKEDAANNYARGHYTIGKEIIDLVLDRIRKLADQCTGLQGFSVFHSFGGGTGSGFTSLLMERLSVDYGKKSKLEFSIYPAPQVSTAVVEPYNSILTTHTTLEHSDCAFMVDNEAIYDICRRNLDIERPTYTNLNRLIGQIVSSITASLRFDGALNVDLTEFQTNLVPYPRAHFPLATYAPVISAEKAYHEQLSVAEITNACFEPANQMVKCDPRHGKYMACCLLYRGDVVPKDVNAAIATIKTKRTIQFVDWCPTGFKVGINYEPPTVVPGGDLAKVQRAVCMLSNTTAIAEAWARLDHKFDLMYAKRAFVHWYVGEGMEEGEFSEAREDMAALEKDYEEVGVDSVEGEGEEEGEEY
T1 sequence (chain, as listed by the source, chain 2 of 2): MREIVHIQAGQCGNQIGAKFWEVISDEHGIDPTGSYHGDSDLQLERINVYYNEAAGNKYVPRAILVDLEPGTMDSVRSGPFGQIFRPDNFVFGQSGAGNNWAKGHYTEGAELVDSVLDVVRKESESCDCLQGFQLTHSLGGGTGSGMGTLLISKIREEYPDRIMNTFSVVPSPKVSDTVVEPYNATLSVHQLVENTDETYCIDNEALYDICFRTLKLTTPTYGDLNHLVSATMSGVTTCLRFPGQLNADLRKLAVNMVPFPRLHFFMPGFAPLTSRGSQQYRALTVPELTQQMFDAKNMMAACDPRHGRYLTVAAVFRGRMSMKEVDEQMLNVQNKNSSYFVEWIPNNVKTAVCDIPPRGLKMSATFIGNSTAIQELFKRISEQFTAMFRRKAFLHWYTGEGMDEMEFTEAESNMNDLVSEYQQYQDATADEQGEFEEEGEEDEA

B1: Anillin-GFP (full-length human anillin, isoform 2, 1087 amino acids) (natural protein)
chain: MDPFTEKLLERTRARRENLQRKMAERPTAAPRSMTHAKRARQPLSEASNQQPLSGGEEKSCTKPSPSKKRCSDNTEVEVSNLENKQPVESTSAKSCSPSPVSPQVQPQAADTISDSVAVPASLLGMRRGLNSRLEATAASSVKTRMQKLAEQRRRWDNDDMTDDIPESSLFSPMPSEEKAASPPRPLLSNASATPVGRRGRLANLAATICSWEDDVNHSFAKQNSVQEQPGTACLSKFSSASGASARINSSSVKQEATFCSQRDGDASLNKALSSSADDASLVNASISSSVKATSPVKSTTSITDAKSCEGQNPELLPKTPISPLKTGVSKPIVKSTLSQTVPSKGELSREICLQSQSKDKSTTPGGTGIKPFLERFGERCQEHSKESPARSTPHRTPIITPNTKAIQERLFKQDTSSSTTHLAQQLKQERQKELACLRGRFDKGNIWSAEKGGNSKSKQLETKQETHCQSTPLKKHQGVSKTQSLPVTEKVTENQIPAKNSSTEPKEVIREIEMSVDDDDINSSKVINDLFSDVLEEGELDMEKSQEEMDQALAESSEEQEDALNISSMSLLAPLAQTVGVVSPESLVSTPRLELKDTSRSDESPKPGKFQRTRVPRAESGDSLGSEDRDLLYSIDAYRSQRFKETERPSIKQVIVRKEDVTSKLDEKNNAFPCQVNIKQKMQELNNEINMQQTVIYQASQALNCCVDEEHGKGSLEEAEAERLLLIATGKRTLLIDELNKLKNEGPQRKNKASPQSEFMPSKGSVTLSEIRLPLKADFVCSTVQKPDAANYYYLIILKAGAENMVATPLASTSNSLNGDALTFTTTFTLQDVSNDFEINIEVYSLVQKKDPSGLDKKKKTSKSKAITPKRLLTSITTKSNIHSSVMASPGGLSAVRTSNFALVGSYTLSLSSVGNTKFVLDKVPFLSSLEGHIYLKIKCQVNSSVEERGFLTIFEDVSGFGAWHRRWCVLSGNCISYWTYPDDEKRKNPIGRINLANCTSRQIEPANREFCARRNTFELITVRPQREDDRETLVSQCRDTLCVTKNWLSADTKEERDLWMQKLNQVLVDIRLWQPDACYKPIGKP
The term koff denotes the rate constant with which the complex falls apart. Low values mean slow dissociation, high ones fast dissociation. As for B1, the koff in assay [1] stood at 0.29 s⁻¹; in assay [2], 0.513 s⁻¹.
